# Laboratory results published in article PMC10266731 (Science Advances, 2023).
# Like-named read-outs stand apart in the source and are kept apart here.
# B1: succinyl-CoA:L-malate CoA transferase (Smt) (Chloroflexus aurantiacus) (protein)
# chain 1: MPPTGEEPSGHAESKPPASDPMSTPGTGQEQLPLSGIRVIDVGNFLAGPYAASILGEFGAEVLKIEHPLGGDPMRRFGTATARHDATLAWLSEARNRKSVTIDLRQQEGVALFLKLVAKSDILIENFRPGTMEEWGLSWPVLQATNPGLIMLRVSGYGQTGPYRRRSGFAHIAHAFSGLSYLAGFPGETPVLPGTAPLGDYIASLFGAIGILIALRHKEQTGRGQLIDVGIYEAVFRILDEIAPAYGLFGKIREREGAGSFIAVPHGHFRSKDGKWVAIACTTDKMFERLAEAMERPELASPELYGDQRKRLAARDIVNQITIEWVGSLTRDEVMRRCLEKEVPVGPLNSIADMFNDEHFLARGNFACIEAEGIGEVVVPNVIPRLSETPGRVTNLGPPLGNATYEVLRELLDISAEEIKRLRSRKII
# chain 2: MDGTTTTLPLAGIRVIDAATVIAAPFCATLLGEFGADVLKVEHPIGGDALRRFGTPTARGDTLTWLSESRNKRSVTLNLQHPEGARVFKELIAHSDVLCENFRPGTLEKWGLGWDVLSKINPRLIMLRVTGYGQTGPYRDRPGFARIAHAVGGIAYLAGMPKGTPVTPGSTTLADYMTGLYGCIGVLLALRHREQTGRGQYIDAALYESVFRCSDELVPAYGMYRKVRERHGSHYNEFACPHGHFQTKDGKWVAISCATDKLFARLANAMGRPELASSSVYGDQKVRLAHASDVNEIVRDWCSSLTRAEVLERCYATATPAAPLNDIADFFGDRHVHARRNLVAIDAEDLGETLIMPNVVPKLSETPGSIRSLGPKLGEHTEEVLKEILGMCDEQINDLRSKRVI
# B2: 4-aminobutyrate-2-oxoglutarate transaminase (GabT) (Escherichia coli K-12) (protein)
# chain: MNSNKELMQRRSQAIPRGVGQIHPIFADRAENCRVWDVEGREYLDFAGGIAVLNTGHLHPKVVAAVEAQLKKLSHTCFQVLAYEPYLELCEIMNQKVPGDFAKKTLLVTTGSEAVENAVKIARAATKRSGTIAFSGAYHGRTHYTLALTGKVNPYSAGMGLMPGHVYRALYPCPLHGISEDDAIASIHRIFKNDAAPEDIAAIVIEPVQGEGGFYASSPAFMQRLRALCDEHGIMLIADEVQSGAGRTGTLFAMEQMGVAPDLTTFAKSIAGGFPLAGVTGRAEVMDAVAPGGLGGTYAGNPIACVAALEVLKVFEQENLLQKANDLGQKLKDGLLAIAEKHPEIGDVRGLGAMIAIELFEDGDHNKPDAKLTAEIVARARDKGLILLSCGPYYNVLRILVPLTIEDAQIRQGLEIISQCFDEAKQ
# B3: (2S)-methylsuccinyl-CoA dehydrogenase (PmMcd) (Pseudomonas migulae) (protein)
# chain: MLPITAADDVQGLLLQLRGLLEQAISALASRCTKGRQLDAELLDLMQVPTFELAWASAELLAAERSLQAIDAGTSSVDRRLILVFAVEAITLVHSRLEAIYAELDLADGTLHAIAADQKLRALRRSVLSSTALHDSARLMVERPEQIGQVAMGDELSMIEDQFRRFAADTVAPLAEHIHREDLIIPDSLLAALRDMGVFGLSIPERYGGSAPDDQEDPLTMIVVTEALSQASLAAAGSLITRPEILSRALLSGGTESQKQHWLARLAVGDPLCAIAITEPDYGSDVAGLTLRGTPCEGGWRLNGAKTWCTFAGKAGVLMVVTRTNPDKSLGHRGLSLLLAEKPSYDGHEFDFRQPGGGSLTGRAIPTIGYRGMHSFDLSFEDFFVPDGNVIGEAQGLGKGFYHTMAGMTGGRMQTAGRASGVMRAALLAGLRYATERKVFGSPLLDYPLTGAKLTKMAARYVASRYLTYSVGRMLAQGEGRMEASLVKLFACRSAELVTRESLQIHGGMGYAEEVAVSRYFVDARVLSIFEGAEETLALKVIGRSLLEAALKAEAA
# B4: Ccr (Methylorubrum extorquens AM1) (protein)
# chain: MAASAAPAWTGQTAEAKDLYELGEIPPLGHVPAKMYAWAIRRERHGPPEQSHQLEVLPVWEIGDDEVLVYVMAAGVNYNGVWAGLGEPISPFDVHKGEYHIAGSDASGIVWKVGAKVKRWKVGDEVIVHCNQDDGDDEECNGGDPMFSPTQRIWGYETGDGSFAQFCRVQSRQLMARPKHLTWEEAACYTLTLATAYRMLFGHAPHTVRPGQNVLIWGASGGLGVFGVQLCAASGANAIAVISDESKRDYVMSLGAKGVINRKDFDCWGQLPTVNSPEYNTWLKEARKFGKAIWDITGKGNDVDIVFEHPGEATFPVSTLVAKRGGMIVFCAGTTGFNITFDARYVWMRQKRIQGSHFAHLKQASAANQFVMDRRVDPCMSEVFPWDKIPAAHTKMWKNQHPPGNMAVLVNSTRAGLRTVEDVIEAGPLKAM
# B5: mesaconyl-CoA hydratase (Mch) (Cereibacter sphaeroides 2.4.1) (protein)
# chain: MKTNAGRFFEDYRLGETIAHAVPRTVSGGERALYHALYPARHALSSSDEFARACGLPAAPVDELMAFHLVFGKTVPDISLNAVANLGYAEGRWLKPVFPGDTLRAESTVIGLKENSNGASGVVWVRTRGLNQQGEAVLSYVRWVMVRKRDTAAPAPAPTVPELAGSVAASDLVIPEGLSFTDYDLTLAGEPHRWGDYAVGEKIDHVDGVTVEESEHMLATRLWQNTAKVHFDATNRPDGRRLIYGGHVISLARTLSFNGLANAQMIVALNAGAHANPCFAGDTVRAWSEVLDKAETADPGVGALRLRLVAMKHGTEPFVTRSEDGKYLPGVLLDLDYWALVPR
# B6: β-alanyl-CoA:ammonia lyase (βCal) (Allostigmatella aurantiaca DW4/3-1) (protein)
# chain: MSTKAIIRLRMSSHDAHYGGNLVDGARMLGLFGDVATELCIRHDGDEGLFRAYDSVEFLAPVYAGDFIEAEGEILSEGNTSRKMRFEARKVIRPRTDVNDSAADLLSEPVVVCRATGTCVVPKDKQRIPR
# B7: Malonyl-CoA reductase (Mcr) (Chloroflexus aurantiacus J-10-fl) (protein)
# chain: MSGTGRLAGKIALITGGAGNIGSELTRRFLAEGATVIISGRNRAKLTALAERMQAEAGVPAKRIDLEVMDGSDPVAVRAGIEAIVARHGQIDILVNNAGSAGAQRRLAEIPLTEAELGPGAEETLHASIANLLGMGWHLMRIAAPHMPVGSAVINVSTIFSRAEYYGRIPYVTPKAALNALSQLAARELGARGIRVNTIFPGPIESDRIRTVFQRMDQLKGRPEGDTAHHFLNTMRLCRANDQGALERRFPSVGDVADAAVFLASAESAALSGETIEVTHGMELPACSETSLLARTDLRTIDASGRTTLICAGDQIEEVMALTGMLRTCGSEVIIGFRSAAALAQFEQAVNESRRLAGADFTPPIALPLDPRDPATIDAVFDWAGENTGGIHAAVILPATSHEPAPCVIEVDDERVLNFLADEITGTIVIASRLARYWQSQRLTPGARARGPRVIFLSNGADQNGNVYGRIQSAAIGQLIRVWRHEAELDYQRASAAGDHVLPPVWANQIVRFANRSLEGLEFACAWTAQLLHSQRHINEITLNIPANISATTGARSASVGWAESLIGLHLGKVALITGGSAGIGGQIGRLLALSGARVMLAARDRHKLEQMQAMIQSELAEVGYTDVEDRVHIAPGCDVSSEAQLADLVERTLSAFGTVDYLINNAGIAGVEEMVIDMPVEGWRHTLFANLISNYSLMRKLAPLMKKQGSGYILNVSSYFGGEKDAAIPYPNRADYAVSKAGQRAMAEVFARFLGPEIQINAIAPGPVEGDRLRGTGERPGLFARRARLILENKRLNELHAALIAAARTDERSMHELVELLLPNDVAALEQNPAAPTALRELARRFRSEGDPAASSSSALLNRSIAAKLLARLHNGGYVLPADIFANLPNPPDPFFTRAQIDREARKVRDGIMGMLYLQRMPTEFDVAMATVYYLADRNVSGETFHPSGGLRYERTPTGGELFGLPSPERLAELVGSTVYLIGEHLTEHLNLLARAYLERYGARQVVMIVETETGAETMRRLLHDHVEAGRLMTIVAGDQIEAAIDQAITRYGRPGPVVCTPFRPLPTVPLVGRKDSDWSTVLSEAEFAELCEHQLTHHFRVARKIALSDGASLALVTPETTATSTTEQFALANFIKTTLHAFTATIGVESERTAQRILINQVDLTRRARAEEPRDPHERQQELERFIEAVLLVTAPLPPEADTRYAGRIHRGRAITV
# Legend:
# [1] = tested on: propionyl-CoA synthetase (Pcs)
# purified protein [2] = substrate: O=C(O)C[C@H](O)C(=O)O; assay: purified protein; details: succinyl-CoA co-substrate
# purified protein [3] = substrate: CC(C)(COP(=O)(O)OP(=O)(O)OC[C@H]1O[C@@H](n2cnc3c(N)ncnc32)[C@H](O)[C@@H]1OP(=O)(O)O)[C@@H](O)C(=O)NCCC(=O)NCCSC(=O)CCC(=O)O; assay: purified protein
# [4] = substrate: N[C@@H](CCC(=O)O)C(=O)O; assay: malonic semialdehyde made by McrC; type: biochemical, Escherichia coli; details: malonic semialdehyde co-substrate, NH4Cl
# [5] = substrate: O=CCC(=O)O; assay: malonic semialdehyde made by McrC; type: biochemical, Escherichia coli; details: L-glutamate co-substrate, NH4Cl
# purified protein [6] = substrate: NC(=O)C1=CN([C@@H]2O[C@H](COP(=O)(O)OP(=O)(O)OC[C@H]3O[C@@H](n4cnc5c(N)ncnc54)[C@H](OP(=O)(O)O)[C@@H]3O)[C@@H](O)[C@H]2O)C=CC1; assay: purified protein; details: acrylyl-CoA co-substrate; varied: cofactor
# purified protein [7] = substrate: C=CC(=O)SCCNC(=O)CCNC(=O)[C@H](O)C(C)(C)COP(=O)(O)OP(=O)(O)OC[C@H]1O[C@@H](n2cnc3c(N)ncnc32)[C@H](O)[C@@H]1OP(=O)(O)O; assay: purified protein; details: NADPH co-substrate
# purified protein [8] = substrate: CC(C)(COP(=O)(O)OP(=O)(O)OC[C@H]1O[C@@H](n2cnc3c(N)ncnc32)[C@H](O)[C@@H]1OP(=O)(O)O)[C@@H](O)C(=O)NCCC(=O)NCCSC(=O)/C=C/C(=O)O; assay: purified protein
# purified protein [9] = substrate: CC(C)(COP(=O)(O)OP(=O)(O)OC[C@H]1O[C@@H](n2cnc3c(N)ncnc32)[C@H](O)[C@@H]1OP(=O)(O)O)[C@@H](O)C(=O)NCCC(=O)NCCSC(=O)CCN; assay: purified protein; details: NADPH, NaHCO3, excess Ccr
# purified protein [10] = substrate: CC(C)(COP(=O)(O)OP(=O)(O)OC[C@H]1O[C@@H](n2cnc3c(N)ncnc32)[C@H](O)[C@@H]1OP(=O)(O)O)[C@@H](O)C(=O)NCCC(=O)NCCSC(=O)CC(=O)O; assay: purified protein; details: NADPH co-substrate; full-length Mcr assumed (McrC also made)
molecule,measurement,setting,value
Nc1ncnc2c1ncn2[C@@H]1O[C@H](COP(=O)(O)OP(=O)(O)OP(=O)(O)O)[C@@H](O)[C@H]1O [ATP],Km,"[1]; read-out: app. Km, 3-hydroxypropionate, NADPH co-substrates",10 µM
O=C(O)CCO [3-hydroxypropionate],Km,"[1]; read-out: app. Km, ATP, NADPH co-substrates",85 µM
B1,Km,purified protein [2],910 µM
same,Km,purified protein [3]; malate co-substrate,960 µM
B2,Km,[4],7 µM
same,Km,[5],98 µM
B3,Km,purified protein [3]; ferrocenium electron acceptor,78 µM
B4,Km,purified protein [6],210 µM
same,Km,purified protein [7],780 µM
B5,Km,purified protein [8],280 µM
B6,Km,purified protein [9],70 µM
B7,Km,purified protein [10],1.3 µM
